One molecule from US20240280570A1 (KING ABDULLAH UNIVERSITY OF SCIENCE AND TECHNOLOGY, published 2024) can be followed below.

The test addresses T1, FRB-24-mCherry-Wp3-TwinStrep.
T1 construct: also called Negative control (mCherry); FRB-mCherry fusion
Briefly: OECT transfer curves (ID against VG), PEDOT:PSS channel.

B1: GFPnanobody-8aa-SpyCatcher-3C cleavage site-His10 (VHH)
VHH: QVQLVESGGALVQPGGSLRLSCAASGFPVNRYSMRWYRQAPGKEREWVAGMSSAGDRSSYEDSVKGRFTISRDDARNTVYLQMNSLKPEDTAVYYCNVNVGFEYWGQGTQVTVSS
notes: also called anti-GFP nanobody; GFP nanobody-SpyCatcher
With B1, the binding result is listed as “no binding (tested: 2 x 10^-8 M)”.
